The text below walks through data of the DeepSol protein solubility set.

This data set can be described thus: soluble on expression in E. coli; label from the status in PepcDB or PDB records.
For “MVNTNLEELRTQVDQLNIDLLELISKRANLVQEIGKIKGTQGSLRFDPLREREMLNTILAANEGPFEDSTVQKLFKEIFKAGLELQEEDHSKALLVSRKNKKEDTIVTVKGLPIGNGEPVFVFGPCSVESYEQVAAVAESIKAKGLKLIRGGAFKPRTSPYDFQGLGLEGLKILKRVSDEYGLGVISEIVTPADIEVALDYVDVIQIGARNMQNFELLKAAGRVDKPILLKRGLSATIEEFIGAAEYIMSQGNGKIILCERGIRTYEKATRNTLDISAVPILKKETHLPVMVDVTHSTGRKDLLLPCAKAALAIEADGVMAEVHPDPAVALSDSAQQMDIPEFEEFWNAILASNLVPHKIK”, the “soluble on expression in E. coli” value is recorded as “not soluble”. As for “SGEVEISARAYGKMCLHASRYPHAAVNGLLLAPATGSGECLCLTDCVPLFHSHLALSVMLEVALNQVDVWGAQAGLVVAGYYHANAVLDDQSPGPLALKIAGRIAEFFPRAVLIMLDNKKLVTRPRVPPVIVLENQGLQWVPKDKNLVMWRDWEESRQMVGALLEGRAHQHLVDFDCHLDDIRQDWTNQRLNTQITQWSGSTDGNA”, the entry is “soluble”; as for “DRFSTAVLALSLFQGAYTAEIFRAGLNSIPKGQFEAAQTLGLSPFYTYKDVILPQVLQRTLPPLTNEVVSLIKNSSIVSVMAIFDLTTQARNIVSETAMPFE”, “not soluble”; as for “MLTPRFDIQPAVSVILPTFDRAPLLASAIESVVAQNFAEWELIVVDDGSSDETFEIVDGYLNQHANIRYMKHRNRKAALSRNAGIQAAFGRYITFLDSDDLYLPEHLESRLHLLESMPEVRLISGGFVCEGDPWVRDRDDPEKLIHVSECIAGATMFGRRELFLDIGGFRALDYAEDTDLWERAARSHKVLKIDQPVSYIYRRSPGSITRTYKPAKPLEHHHHHH”, “soluble”.

For “MKWRCLIYIETRGDILFMTKWFNVGKIVNTHGVRGEIRVISRTDFPEERYKVGNTLYISNEKGTDYLPVKVTSHRQHKTFDLLTFEGYNNVDEVEKFKGSLIKVPEEQLGELAEGEYYYHEIIGCSVVTEEGEALGTIKEILSPGANDVWVIKRPKGQDLLIPYIDDVVLQVNIENKLVTIHVMEGLLLEHHHHHH”, the “soluble on expression in E. coli” value was “soluble”.

For “MNEHIESYHRILEEECLSINEFESFAEAYTIVNEFIKLYNTKRIHSSTKYMPPAEFYEHLRISGETVNMRL”, the “soluble on expression in E. coli” value was “not soluble”.

As for “IRRKINANVYDKVVLYAPTWRGIHGKATLDIEKLKNDLEKLADQDCHIVFRGHHMIEKLVSEQNISGITIVPSEIDTNELLGAIDILITDYSSIAFDFFVMNRPVIYYAYDIEQYNNERGLYFPLNELPGTVCFNDVELLNTLSGYLRNEIYFDASKGIDKFCKNDDGSVCGKVIEWFFF”, the “soluble on expression in E. coli” value was “not soluble”.

With “MSLEPKIVRFDLGKEYIILTSALYPEGIIRVNQICSIFVDKSYCSGNPWGDVINWCPSKSAIMFMTAAKNYTFKETDWGKFFISAGIGRSGEDAGCTINIGVFVDKGLNINGLVDLIRTVTEAKAGALRDLGYKFTGTVSDAIAVGSLPGNEYFIGPGTELGKKIAYDIRNTIVELLFKGDDEGHHHHHH”, the “soluble on expression in E. coli” value is “soluble”.

For “AGIKVFGHPASIATRRVLIALHEKNLDFELVHVELKDGEHKKEPFLSRNPFGQVPAFEDGDLKLFESRAITQYIAHRYENQGTNLLQTDSKNISQYAIMAIGMQVEDHQFDPVASKLAFEQIFKSIYGLTTDEAVVAEEEAKLAKVLDVYEARLKEFKYLAGETFTLTDLHHIPAIQYLLGTPTKKLFTERPRVNEWVAEITKRPASEKVQ”, the “soluble on expression in E. coli” value was “soluble”. For “MFFRVKTTPTKAKPYVKPQNANNLQNNFNPRKIFTEYISKEETDAGIEDGSMFKGVLRINPKNYQECFLDHPKGTNHPDVLVLGQDRNRAMQGDVVAVKIKPKEDWLVNYVEYVKWWAEHKKGDRNSGKTDNNSPNKTEKRCLRNEIQDNGVTSDEVPDSCLITIGAIVHILEKKHFRVAAGKLQLMPNSANPNVLFVATDSRVPRILIPKSDVDKEFFSRPKDFERFLYTAKITDWRAESVYADGRLVKLLGMSGEIDTETERIVYEHQIDHREFSDECLESLPITTAENWKVPDAEFEYRRDFRSDIVFTIDPKTARDLDDALHAKHIDDCDGKGTPGLEIGVHIADVTFFLKEGTELDKWASERGNSTYLSQTVIPMLPRILCEQLCSLNPGVDRLSFSTVFKMSYEAELYDVWFGRSVIRSRVKLAYEHAQDFIENPEKDFTCDELPDISDGNTPFEIKEKTLMLHRIAQVLRQKREDSGALRIELPRLKFALDEDKKPQGVSIYEIKDSNKLVEEFMLLANMEVAKKIAENFPEHALLRNHPPPKEKMIKDVAEQCARIGFPLDGRTSGLLSTSLRKYQGKSRLDMCIRQVISSLTIKPMQQAKYFCTFEMPLSFYHHFALNVDHYTHFTSPIRRYPDVIVHRQLAAALGYNERSERVPEEIQEICTRCNDTKLASKEASDESAMLYFGVFIHQTGPMKCQAVVLGVMDLSFDVLIVEYGVVKRVYVDKMKRDFNKSTEKLTIYWPADPNAESGNREEFSSSIQMCNVVYVILVPYKSIEVSATIVRPSLEQRNILKSTLKDMKETGSTILQ” the value was “not soluble”.

In the case of “MAHHHHHHMLSTSQAFLASLRYRRPYWMLFLKGADNWKIYTVIQQPDHQRTEMLYQAWLGGLDRPYVRPKCMAHQPVWLSKKRHLLQKARLEGPETSVEKYVLEWYKKFHSFQGTDRPTAEDLHTAFDLVERPLDLSYACQLLNQCRNHYYIRLSDDSFEIFLEACLRVDRRDCAIYALEHAEELGFWHVSDNCRRYLAGEQTWYKRSPVDLLYYPLEENAERNTAVTSGTAASAVAASDKVKGDEKVEGAPRTSATTSATAASAENEGEAEVTDDEIARLQAELEALEREIGSEGADGTDKD”, the “soluble on expression in E. coli” value was “not soluble”. Consider “MNVYRNQLIQLLPEITELKNLTTLDLSLNKLTQLPPEIGELNNLKTLYSSSNQLTQLPLEITKLKNLTELYLSSNLMIRLPLEITELKNLTTLNVYRNQLIQLPSKITELKNLKKLDLSRNQLAQLPPEIAELKNLTTLDLSRNQLAQLPPEIAELKNLTTLDLFENPLISLEHHHHHH”, for which the “soluble on expression in E. coli” value is recorded as “not soluble”. As for “VFDRPLFALDFSKCTEKIIQTTELFKELVKEAILLHVVDYGKESEVEENIQKATQKLKEIAEKLDFPSEVVVHSGDASKEILMTAPSVGATLIVIGKRGRNILQLLMGSTAEIVIRNSVLPVLIVP”, the entry is “not soluble”. On to “MSQQPGVLPENMKRYMGRDAQRMNILAGRIIAETVRSTLGPKGMDKMLVDDLGDVVVTNDGVTILREMSVEHPAAKMLIEVAKTQEKEVGDGTTTAVVVAGELLRKAEELLDQNVHPTIVVKGYQAAAQKAQELLKTIACEVGAQDKEILTKIAMTSITGKGAEKAKEKLAEIIVEAVSAVVDDEGKVDKDLIKIEKKSGASIDDTELIKGVLVDKERVSAQMPKKVTDAKIALLNCAIEETASEMLKDMVAEIKASGANVLFCQKGIDDLAQHYLAKEGIVAARRVKKSDMEKLAKATGANVITNIKDLSAQDLGDAGLVEERKISGDSMIFVEECKHPKAVTMLIRGTTEHVIEEVARAVDDAVGVVGCTIEDGRIVSGGGSTEVELSMKLREYAEGISGREQLAVRAFADALEVIPRTLAENAGLDAIEILVKVRAAHASNGNKCAGLNVFTGAVEDMCENGVVEPLRVKTQAIQSAAESTEMLLRIDDVIAAEKLRGAPDMGDMGGMPGMGGMPGMM”, for which the “soluble on expression in E. coli” value was “soluble”.

“MSLALVAEKLSEQWRAELDSRGLDAAPMADWMTVCRRLSLALAGTGLSLEEIRSLQRLPEADRVETHRERLLNSERFHHYWAERTARYLVGADEGPFIFYRGRRFRSWLTEQYAKNTRYDELVRMLITAEGVWTDRPEVNFHTVTFDSGDNAPDPIRLAARTTRAFLGVRIDCLQCHDDFLGNVSLGDASWIMCGVGDATMQAAAEGDAKYVLREGTQEDFHSLAAFFTAATSEGVQGLKDKRANYEYQYLYADETVPVEPNVPFLRELLPPRPENRQDDSSDDDSTDTTDESASDEPSDAPEPLELPRYLSDRERLAYWLTHTENKPAARAAVTRVWTLLFGQPPAIETDYGFQVGEVDNLPLDSPPSPLIETLTEAFIESDFNIRKLIRCITDSPAFRVSSRADFDVTEQHELAMAVFPVTHLRSEQVAGAAIQAGRIKTINRDSSFLVQLQQFGSLNDFLKRYGDLGEDEFTQQPVTITQRLVMLNGKLINETASPNPILNASSHIEMFAKDDEDVVRTLYLTVLNREPSERELEHFVKRLTAESREQNDPPTSRKQEITDLTWILLNSSEFAWNHEGHHHHHH”: the “soluble on expression in E. coli” value is on record as “not soluble”. As for “MTAEHSWRLCLMALAFEDQLAGLDLGKVLRMCVVHDLGEAIHGDIPAVEQAAHPDKGEQERADLLQLTRHLDAPLRDRLLALWDEYERGESAEALAVKALDKLETL”, the “soluble on expression in E. coli” value is listed as “soluble”. As to “MSLKSALRLYNRASFKASHKVIEEYSTSFSLSTWLLSPRIRNDIRNLYAVVRIADEIVDGTAHAAGCSTAKIEEILDAYEIAVLAAPQQRFNTDLVLQAYGETARRCDFEQEHVIAFFASMRKDLKANTHDPDSFTTYVYGSAEVIGLLCLSVFNQGRTISKKRLEIMQNGARSLGAAFQKINFLRDLAEDQQNLGRFYFPKTSQGTLTKEQKEDLIADIRQDLAIAHDAFPEIPVQARIGVISAYLLFQKLTDRIEATPTADLLRERIRVPLHIKLSTLARATMKGLSMSIYRKNSEGHHHHHH”, the “soluble on expression in E. coli” value is reported as “soluble”.

Consider “MARTREFDTEAAVSRAMELFWTRGYEATSVRDLTGHLGIGQGSLYAAFGDKDGLYRAALEHYRTTLAAAALRSLEEGTDARSAIRTMLVERIRIAVDDNGRGCLAVNAACERLPEDAATRRTVRDMQDAGRDALTEVLRVAAERGEIAKRHDPHTLAAFLVTFLNGLLVSSKITPDVRALEPLVEVALAALD”, for which the “soluble on expression in E. coli” value is given as “not soluble”.

As for “SLNSPIATVEVFTLTQPRKVPYLGALREGEVVNPNGYIVRKGNRTVYPTFDRSVLVRMTTEAGTVGWGETYGIVAPGAVAALINDLLAGFVIGRDASDPSAVYDDLYDMMRVRGYTGGFYVDALAALDIALWDIAGQEAGKSIRDLLGGGVDSFPAYVSGLPERTLKARGELAKYWQDRGFNAFKFATPVADDGPAAEIANLRQVLGPQAKIAADMHWNQTPERALELIAEMQPFDPWFAEAPVWTEDIAGLEKVSKNTDVPIAVGEEWRTHWDMRARIERCRIAIVQPEMGHKGITNFIRIGALAAEHGIDVIPHATVGAGIFLAASLQASSTLSMLKGHEFQHSIFEPNRRLLDGDMDCREGRYHLPSGPGLGVRPSEAALGLIERI”, the “soluble on expression in E. coli” value is on record as “soluble”.

Take “MGSSHHHHHHSSENLYFQGHMSSRAETPRVPFLDLKAAYEELRAETDAAIARVLDSGRYLLGPELEGFEAEFAAYCETDHAVGVNSGMDALQLALRGLGIGPGDEVIVPSHTYIASWLAVSATGATPVPVEPHEDHPTLDPLLVEKAITPRTRALLPVHLYGHPADMDALRELADRHGLHIVEDAAQAHGARYRGRRIGAGSSVAAFSFYPGKNLGCFGDGGAVVTGDPELAERLRMLRNYGSRQKYSHETKGTNSRLDEMQAAVLRIRLAHLDSWNGRRSALAAEYLSGLAGLPGIGLPVTAPDTDPVWHLFTVRTERRDELRSHLDARGIDTLTHYPVPVHLSPAYAGEAPPEGSLPRAESFARQVLSLPIGPHLERPQALRVIDAVREWAERVDQA”: the “soluble on expression in E. coli” value is “soluble”. For “MSLTLLALGINHKTAPVSLRERVSFSPDKLDQALDSLLAQPMVQGGVVLSTCNRTELYLSVEERDDLQEALIRWLCDYHNLNEDDLRNSLYWHQDNDAVSHLMRVASGLDSLVLGEPQILGQVKKAFADSQKGHMKASELERMFQKSFSVAKRVRTETDIGASAVSVAFAACTLARQIFESLSTVTVLLVGAGETIELVARHLREHKVQKMIIANRTRERAQILADEVGAEVIALSDIDERLREADIIISSTASPLPIIGKGMVERALKSRRNQPMLLVDIAVPRDVEPEVGKLANAYLYSVDDLQSIISHNLAQREGHHHHHH” the value was “not soluble”.
